Measurements as given in patent publication US20130331517A1, “Novel Polymer Derivative Of Cytidine Metabolic Antagonist” (NIPPON KAYAKU KABUSHIKI KAISHA, priority 2010, published 2013).

Columns and labels:
[1] = system: human lung cancer LC-11-JCK; experiment: Anti-tumor activity test, human lung cancer LC-11-JCK transplanted subcutaneously in F344 nude rat; type: in vivo; details: for Relative ratio of tumor volume: F344 nude rat, day 23 after administration start, relative to no-treatment group (100.0); for Anti-tumor effects in comparison to 3′-ethynylcytidine as the control drug: maximum dose, when the change of the body weight was about 10% or less of the maximum decrease rate
Description: The human lung cancer LC-11-JCK which had been subcultured under the skin of a rat was made to a block of about 2 mm square, and transplanted subcutaneously into the dorsal part of F344 nude rat using an over-needle catheter. From day 13 after the tumor transplant, the polymer derivative of the present invention (Compound 5, Compound 10) was administered intravenously single time in the dose listed in Table 1. In addition, the control drug (3′-ethynylcytidine; ECyd) was administered subcutaneously by infusion over 24 hours using Alzet pump. Meanwhile, each compound was used as dissolved in 5% glucose solution. The administration was performed such that the dose when the change of the body weight was about 10% of the maximum decrease rate was taken as the maximum dose.
The tumor volume was measured on the start day of the administration and on day 23 after the administration start with vernier calipers for the major axis (L mm) and minor axis (W mm) of the tumor, and the tumor volume was calculated from (L×W^2)/2, and the relative ratio of the tumor volume with respect to the tumor volume of the no-treatment group (control) was listed in Table 1.

[2] = Medicament release of 3′-ethynylcytidine polymer derivative in the absence of enzyme (PBS, pH 7.4, 37° C.); type: physicochemical; details: 1 mg/mL, no hydrolysis enzyme
Description: Compound 5, Compound 10, Compound 15, Compound 21 and Compound 22, and PEG-Glu-ECyd in which 3′-ethynylcytidine derivative is bonded to a polyethylene glycol-polyglutamic acid block copolymer, and PEG-Glu-(ECyd, PheOBzl) in which 3′-ethynylcytidine and phenylalanine benzyl ester are bonded to a polyethylene glycol-polyglutamic acid block copolymer, which were manufactured by the method described in the pamphlet of WO 2006/120914 A as the comparative compounds, were dissolved in PBS solution (phosphate buffered saline; pH 7.4) at 1 mg/mL of the concentration, respectively, and incubated at 37° C. The 3′-ethynylcytidine released from each polymer derivative was quantified using HPLC. The ratio to the total amount of the medicament in the polymer derivative found out from the quantified value and the content of the medicament of the polymer derivative are indicated in FIGS. 1 to 3.

[3] = Particle size (RMS radius) and micelle formation in aqueous solution by dynamic and static light scattering; type: physicochemical; details: aqueous solution 1 mg/mL; for RMS radius by Gaussian distribution analysis (dynamic light scattering): volume weighting
Description: Hereinafter, the present invention will be further explained with Examples. However, the present invention is not limited to these Examples. Meanwhile, when the compound of the present invention forms particles such as a micelle in an aqueous solution in Examples, the size of the particles (particle size) is indicated with Gaussian distribution analysis by dynamic light scattering method or by static light scattering method as RMS radius. The former was measured with Zeta Potential/Particle sizer NICOMP™ 380ZLS (manufactured by Particle Sizing Systems), and the latter was measured with DAWN EOS™ (manufactured by Wyatt Technology), and calculated.

[4] = single intravenous administration, dose 6 mg/Kg in conversion to 3′-ethynylcytidine
[5] = single intravenous administration, dose 12 mg/Kg in conversion to 3′-ethynylcytidine

| Molecule | Relative ratio of tumor volume [1, 4] | Relative ratio of tumor volume [1, 5] | Anti-tumor effects in comparison to 3′-ethynylcytidine as the control drug [1] | Release of 3′-ethynylcytidine from the polymer derivative [2] | Release of 3′-ethynylcytidine relative to PEG-Glu-ECyd [2] | Release rate of 3′-ethynylcytidine relative to the comparative compounds [2] | Micelle formation in water [3] | RMS radius by static light scattering method [3] | RMS radius by Gaussian distribution analysis (dynamic light scattering) [3] | Relative ratio of tumor volume ([1]; subcutaneous infusion over 24 hours using Alzet pump, dose 6 mg/Kg) |
| --- | --- | --- | --- | --- | --- | --- | --- | --- | --- | --- |
| amide-bonded body of block copolymer including methoxy polyethylene-glycol structural moiety having 12,000 of the molecular weight and polyglutamic acid moiety having 21 of the polymerization number, to aspartic acid-1-phenylbutyl amide-4-(3′-ethynylcytidine)amide [Compound 5] | 44.9 | 29.3 | strong anti-tumor effects | release 3′-ethynylcytidine despite the absence of a hydrolysis enzyme | more rapidly than PEG-Glu-ECyd | equal to or more than that of the comparative compounds | forms a micelle in water | 11 nm | 18 nm | – |
| amide-bonded body of block copolymer including methoxy polyethylene-glycol structural moiety having 12,000 of the molecular weight and polyglutamic acid moiety having 21 of the polymerization number, to aspartic acid-1-butyl amide-4-(3′-ethynylcytidine)amide [Compound 10] | 46.7 | 26.4 | strong anti-tumor effects | release 3′-ethynylcytidine despite the absence of a hydrolysis enzyme | more rapidly than PEG-Glu-ECyd | equal to or more than that of the comparative compounds | did not form a micelle in water at this concentration | – | – | – |
| amide-bonded body of block copolymer including two methoxy polyethylene glycol moieties having 5,000 of the molecular weight and polyglutamic acid moiety having 21 of the polymerization number, to aspartic acid-1-adamantane methyl amide-4-(3′-ethynylcytidine)amide [Compound 22] | – | – | – | release 3′-ethynylcytidine despite the absence of a hydrolysis enzyme | – | equal to or more than that of the comparative compounds | formed a micelle in water | 8 nm | 14 nm | – |
| C#C[C@@]1(O)[C@@H](CO)O[C@@H](n2ccc(N)nc2=O)[C@@H]1O [Control drug, 3′-ethynylcytidine, reference compound] | – | – | – | – | – | – | – | – | – | 49.4 |
| amide-bonded body of block copolymer including methoxy polyethylene-glycol structural moiety having 12,000 of the molecular weight and polyglutamic acid moiety having 21 of the polymerization number, to aspartic acid-1-phenylalanine-(4-phenylbutyl ester)-4-(3′-ethynylcytidine)amide [Compound 21] | – | – | – | release 3′-ethynylcytidine despite the absence of a hydrolysis enzyme | – | equal to or more than that of the comparative compounds | formed a micelle in water | 40 nm | 41 nm | – |
| amide-bonded body of block copolymer including methoxy polyethylene-glycol structural moiety having 12,000 of the molecular weight and polyglutamic acid moiety having 21 of the polymerization number, to aspartic acid-1-adamantane methyl amide-4-(3′-ethynylcytidine)amide [Compound 15] | – | – | – | release 3′-ethynylcytidine despite the absence of a hydrolysis enzyme | – | equal to or more than that of the comparative compounds | formed a micelle in water | 13 nm | 20 nm | – |
